Source: patent US20210403601A1 (FAPON BIOTECH, published 2021)
Where a chain is given by its changes, count along the chain named.

B1: Mutation 1-1 (antibody, V domains shown)
VH: QVQLQQPGAELVKPGASVRLSCQTSVDTFTTYYIYWVKQRPGEGLEWIGGINPTSNPVFNEKFKSKATLTVDTSSSTAYMQLSSLTSVDSAVYYCTRSIVRRGYYFDYWGQGTALTVSS
VL: DIQMTQTTSSLSASLGDRVTISCRASQDINNYVNWYQQKPDGTIKLLIYYTSRLQSGVPSRFSGSGSGTDYSLTIANLEQEDIATYFCQQDDTIPITFGAGTKVELKR
notes: Mutation 1 background; CDRs built
B2: Mutation 1-20 (antibody, V domains shown)
VH: B1 VH with D27E, I51L, V100I
VL: B1 VL with N30Q, V33L, Q55N, V58I, I96L
notes: as for B1
B3: Mutation 1-17 (antibody, V domains shown)
VH: QVQLQQPGAELVKPGASVRLSCQTSVNTFTTYYIYWVKQRPGEGLEWIGGLNPTSGGPVFNEKFKSKATLTVDTSSSTAYMQLSSLTSVDSAVYYCTRSLIRRGYYFDYWGQGTALTVSS
VL: B1 VL with V33I, Q55N, V58L, I94L, I96L
notes: as for B1
B4: Mutation 1-26 (antibody, V domains shown)
VH: B3 VH with T30S
VL: B1 VL with N30Q, V33L, Q55N, V58L, I94L, I96L
notes: as for B1
B5: Mutation 1-25 (antibody, V domains shown)
VH: B3 VH with N27E, L51I, I101V
VL: B1 VL with Q55H, V58L, I94L
notes: as for B1
B6: Mutation 1-29 (antibody, V domains shown)
VH: B1 VH with D27E, I51L, V100I
VL: B1 VL with V33I, Q55N, V58I, I96V
notes: as for B1
B7: Mutation 1-24 (antibody, V domains shown)
VH: B3 VH with N27E, T30S, L51V, I101L
VL: B1 VL with N30Q, V58L, I94L, I96V
notes: as for B1
B8: Mutation 1-28 (antibody, V domains shown)
VH: B1 VH with T30S
VL: B1 VL with N30Q, V33I, Q55H, V58I
notes: Mutation 1 background; CDRs built; also called Mutation 148
B9: Mutation 1-30 (antibody, V domains shown)
VH: B3 VH with T30S, L51I, L100V, I101L
VL: B1 VL with N30Q, I94V, I96L
notes: Mutation 1 background; CDRs built; CDR-VL3 cell printed VL, read as V/L
B10: Mutation 1-22 (antibody, V domains shown)
VH: B3 VH with L51I, L100V, I101V
VL: B1 VL with N30Q, V33I, Q55H, I94V
notes: as for B1
B11: Mutation 1-5 (antibody, V domains shown)
VH: B3 VH with L100V
VL: B1 VL with V33I, Q55H, V58L, I94V, I96L
notes: as for B1
B12: Mutation 1-60 (antibody, V domains shown)
VH: B3 VH with L51V, I101L
VL: B1 VL with N30Q, V33I, Q55H, I94L, I96V
notes: as for B1
B13: Mutation 1-50 (antibody, V domains shown)
VH: B3 VH with T30S, L51V, L100V
VL: B1 VL with N30Q, V33L, V58L, I94V, I96V
notes: as for B1
B14: Mutation 1-42 (antibody, V domains shown)
VH: B1 VH with D27E, T30S, I99L, V100L
VL: B1 VL with N30Q, V58L, I94L, I96L
notes: as for B1
B15: Mutation 1-4 (antibody, V domains shown)
VH: B3 VH with T30S, L51I, L100V, I101V
VL: B1 VL with N30Q, V33I, Q55H, I94V
notes: as for B1
B16: Mutation 1-46 (antibody, V domains shown)
VH: B3 VH with N27D, T30S, L100I, I101V
VL: B1 VL with N30Q, V33I, Q55N, V58I
notes: as for B1
B17: Mutation 1-27 (antibody, V domains shown)
VH: B1 VH with D27N, I51V, V100L
VL: B1 VL with V33L, V58I, I96V
notes: as for B1
B18: Mutation 1-36 (antibody, V domains shown)
VH: B1 VH with D27E, T30S, V100L
VL: B1 VL with N30Q, V58I, I96L
notes: as for B1
B19: Mutation 1-2 (antibody, V domains shown)
VH: B1 VH with D27E, T30S, I51L, V100I
VL: B1 VL with N30Q, V33L, V58L, I96L
notes: as for B1
B20: Mutation 1-39 (antibody, V domains shown)
VH: B3 VH with L51I, L100V, I101L
VL: B1 VL with V33L, I94V, I96L
notes: as for B1
B21: Mutation 1-32 (antibody, V domains shown)
VH: B3 VH with N27D, T30S, L51V, L100V
VL: B1 VL with N30Q, V33L, Q55N, I94V, I96V
notes: as for B1
B22: Mutation 1-31 (antibody, V domains shown)
VH: B3 VH with L100V, I101V
VL: B1 VL with Q55H, I94V
notes: as for B1
B23: Mutation 1-52 (antibody, V domains shown)
VH: B3 VH with N27E, I101V
VL: B1 VL with N30Q, V33I, Q55H, V58I, I94L
notes: as for B1
B24: Mutation 1-34 (antibody, V domains shown)
VH: B3 VH with N27D, T30S, I101V
VL: B1 VL with N30Q, V33I, Q55H, V58L, I94L
notes: as for B1
B25: Mutation 1-47 (antibody, V domains shown)
VH: B1 VH with I51V, V100I
VL: B1 VL with V33I, Q55N, V58L, I96V
notes: as for B1
B26: Mutation 1-54 (antibody, V domains shown)
VH: B1 VH with D27N, I51L, V100L
VL: B1 VL with N30Q, Q55N, I96V
notes: as for B1
B27: Mutation 1-16 (antibody, V domains shown)
VH: B3 VH with T30S, L51I, I101V
VL: B1 VL with N30Q, V33I, Q55N, I94L
notes: as for B1
B28: Mutation 1-23 (antibody, V domains shown)
VH: B3 VH with N27D, T30S, L100V
VL: B1 VL with V33I, Q55N, I94V, I96L
notes: as for B1
B29: Mutation 1-40 (antibody, V domains shown)
VH: B3 VH with N27D, T30S, L100V, I101V
VL: B1 VL with N30Q, V33I, Q55H, I94V
notes: as for B1
B30: Mutation 1-48 (antibody, V domains shown)
VH: B1 VH with D27E, T30S, I99V, V100L
VL: B1 VL with N30Q, I94V, I96L
notes: as for B1
B31: Mutation 1-6 (antibody, V domains shown)
VH: B1 VH with T30S, I51V, I99L, V100L
VL: B1 VL with N30Q, Q55N, V58I, I94L, I96V
notes: as for B1
B32: Mutation 1-18 (antibody, V domains shown)
VH: B1 VH with I51V, V100L
VL: B1 VL with N30Q, V58I, I96V
notes: as for B1
B33: Mutation 1-57 (antibody, V domains shown)
VH: B1 VH with D27E, T30S, I51V, I99V, V100L
VL: B1 VL with V33L, I94V, I96V
notes: as for B1
B34: Mutation 1-21 (antibody, V domains shown)
VH: B3 VH with T30S, L51V, L100V, I101L
VL: B1 VL with V33L, I94V, I96V
notes: as for B1
B35: Mutation 1-12 (antibody, V domains shown)
VH: B1 VH with T30S, I51V, I99V, V100L
VL: B1 VL with N30Q, Q55H, V58I, I94V, I96V
notes: as for B1
B36: Mutation 1-10 (antibody, V domains shown)
VH: B3 VH with T30S, L51I, L100I, I101V
VL: B1 VL with N30Q, V33I
notes: as for B1

molecular target: T1, Taq DNA polymerase (Thermus aquaticus, UniProt P19821 1-832); test: AMC sensor, antibody immobilised
T1 construct: also called Taq enzyme; Taq DNA enzyme
T1 sequence (P19821 whole entry): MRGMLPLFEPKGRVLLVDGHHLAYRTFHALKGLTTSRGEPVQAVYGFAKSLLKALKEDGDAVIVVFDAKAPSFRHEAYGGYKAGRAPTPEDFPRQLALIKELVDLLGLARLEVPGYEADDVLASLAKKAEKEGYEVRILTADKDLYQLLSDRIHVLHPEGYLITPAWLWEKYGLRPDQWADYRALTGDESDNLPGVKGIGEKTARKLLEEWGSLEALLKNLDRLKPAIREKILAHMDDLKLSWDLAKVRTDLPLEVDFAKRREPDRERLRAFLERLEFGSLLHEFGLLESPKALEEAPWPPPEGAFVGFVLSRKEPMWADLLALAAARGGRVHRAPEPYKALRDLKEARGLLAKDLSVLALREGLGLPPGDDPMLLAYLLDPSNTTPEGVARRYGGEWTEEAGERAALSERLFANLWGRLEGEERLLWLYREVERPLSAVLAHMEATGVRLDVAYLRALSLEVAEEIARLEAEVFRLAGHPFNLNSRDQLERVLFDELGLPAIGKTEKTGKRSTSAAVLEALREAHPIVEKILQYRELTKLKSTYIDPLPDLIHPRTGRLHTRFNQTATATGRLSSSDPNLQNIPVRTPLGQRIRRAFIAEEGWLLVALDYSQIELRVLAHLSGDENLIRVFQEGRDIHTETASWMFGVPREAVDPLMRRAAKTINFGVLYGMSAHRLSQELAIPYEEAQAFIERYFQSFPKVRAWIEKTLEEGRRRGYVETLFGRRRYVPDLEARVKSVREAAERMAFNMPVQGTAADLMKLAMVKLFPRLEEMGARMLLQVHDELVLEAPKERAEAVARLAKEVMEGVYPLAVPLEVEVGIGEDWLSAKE

Kd [nM]	koff [s⁻¹]	kon [M⁻¹ s⁻¹]	Binder
0.491	1.58e-05	32200	B1
0.728	6.43e-05	88300	B2
0.398	1.36e-05	34000	B3
0.852	2.89e-05	34000	B4
0.678	4.57e-05	67300	B5
0.0314	1.13e-06	36100	B6
0.199	1.12e-05	56400	B7
0.402	2.61e-05	65000	B8
0.911	4.49e-05	49300	B9
0.384	3.7e-05	97200	B10
0.873	7.78e-05	89100	B11
0.0314	2.66e-06	84600	B12
0.593	3.02e-05	50800	B13
0.803	3.75e-05	46700	B14
0.719	2.75e-05	38200	B15
0.655	2.87e-05	43800	B16
0.028	2.03e-06	72400	B17
0.768	3.85e-05	50200	B18

Kd [nM]	koff [s⁻¹]	kon [M⁻¹ s⁻¹]	Binder
0.285	1.42e-05	49700	B19
0.457	2.2e-05	48100	B20
0.281	8.8e-06	31300	B21
0.85	5.38e-05	63300	B22
0.698	2.37e-05	34000	B23
0.987	6.17e-05	62600	B24
0.739	4.67e-05	63200	B25
0.273	1.01e-05	37200	B26
0.223	1.45e-05	65100	B27
0.913	6.41e-05	70200	B28
0.615	4.7e-05	76400	B29
0.384	3.72e-05	97900	B30
0.808	3.41e-05	42100	B31
0.677	4.5e-05	66400	B32
0.362	2.49e-05	69000	B33
0.0664	5.96e-06	89800	B34
0.022	2.05e-06	93400	B35
0.384	3.76e-05	98000	B36
